Blank lines part the entries; values can stand above or below the compound they belong to.
Tests used:
[1] = target: T1, MOP (Mus musculus, UniProt P42866); settings: 60 min of agonist exposure
[2] = target: T1, MOP; settings: 60 min of agonist exposure; remark: listed apart in the source
[3] = target: μ-opioid receptor (MOP) (Mus musculus, UniProt P42866)
[4] = target: hemagglutinin (HA)-tagged mouse µ-opioid receptor (MOP), not phosphorylated (mouse) (UniProt P42866); assay: saturation binding of [3H]DAMGO to membranes of HA-MOP-transfected HEK293 cells
Sequence of hemagglutinin (HA)-tagged mouse µ-opioid receptor (MOP), not phosphorylated (mouse) (P42866 whole entry): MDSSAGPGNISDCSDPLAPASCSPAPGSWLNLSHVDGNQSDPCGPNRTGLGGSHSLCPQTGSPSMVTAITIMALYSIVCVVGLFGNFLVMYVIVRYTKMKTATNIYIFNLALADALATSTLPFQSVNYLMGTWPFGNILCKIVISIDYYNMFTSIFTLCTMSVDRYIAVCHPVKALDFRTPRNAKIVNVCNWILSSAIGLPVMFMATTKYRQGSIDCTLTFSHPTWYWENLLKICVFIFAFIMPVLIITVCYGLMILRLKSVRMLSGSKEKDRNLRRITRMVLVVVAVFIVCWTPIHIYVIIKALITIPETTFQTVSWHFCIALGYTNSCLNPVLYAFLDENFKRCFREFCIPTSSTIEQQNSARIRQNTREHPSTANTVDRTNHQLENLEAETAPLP

[5] = target: hemagglutinin (HA)-tagged mouse µ-opioid receptor (MOP), phosphorylated after DAMGO stimulation (mouse) (UniProt P42866); assay: 7TM phosphorylation assay: HA-MOP of DAMGO-treated cells on anti-HA magnetic beads
[6] = target: hemagglutinin (HA)-tagged mouse µ-opioid receptor (MOP), not phosphorylated (mouse) (UniProt P42866); assay: 7TM phosphorylation assay: HA-MOP of untreated cells on anti-HA magnetic beads
[7] = target: hemagglutinin (HA)-tagged mouse µ-opioid receptor (MOP), phosphorylated after DAMGO stimulation (mouse) (UniProt P42866); assay: 7TM phosphorylation assay: HA-MOP on anti-HA magnetic beads, rabbit primary antibody, enzyme-labeled secondary antibody

T1 sequence (P42866 whole entry): as above
Sequence of μ-opioid receptor (MOP) (P42866 whole entry): as above

Compound: C[C@@H](NC(=O)[C@@H](N)Cc1ccc(O)cc1)C(=O)NCC(=O)N(C)[C@@H](Cc1ccccc1)C(=O)NCCO [DAMGO, [D-Ala2,N-MePhe4,Gly-ol]-enkephalin]
β-arrestin1 and β-arrestin2 recruitment [1]: virtually identical to those of DAMGO-induced MOP phosphorylation | recruitment of GRK2 and GRK3 to MOP [2]: high efficiency | extent of MOP phosphorylation resulting from GRK2/3 recruitment [3]: full phosphorylation

Compound: CCCCCCCCCCCCCC(=O)O[C@@H]1[C@@H](C)[C@@]2(O)[C@@H](C=C(CO)C[C@]3(O)C(=O)C(C)=C[C@@H]23)[C@@H]2C(C)(C)[C@]12OC(C)=O [PMA, phorbol 12-myristate 13-acetate]
T370 phosphorylation of MOP (heterologous, PKC activation) [3]: potent and selective phosphorylation of T370

Compound: [D-Ala2,N-MePhe4,Gly-ol]-enkephalin (DAMGO) (peptide)
functional MOPs per cell (saturation binding) (MOPs per cell) [4]: 300000

optical density (OD) read at 405 nm [5]: 0.8 OD at 405 nm | optical density (OD) read at 405 nm [6]: 0.8 OD at 405 nm
Compound: anti-np-MOP antibody (7TM0319N)

optical density (OD) read at 405 nm [7]: 1.2 OD at 405 nm | optical density (OD) read at 405 nm [6]: 0.2 OD at 405 nm
Compound: anti-pS375-MOP antibody (7TM0319C)
